T1: fluorescently quenched α-gliadin hexapeptide analogue QXL520-PQPQLP-K(5-FAM)-NH2
T1 chain: PQPQLP

B1: Kumamolisin-As N291D, Q361D (protein)
chain: AAPTAYTPLDVAQAYQFPEGLDGQGQCIAIIELGGGYDEASLAQYFASLGVPAPQVVSVSVDGASNQPTGDPSGPDGEVELDIEVAGALAPGAKFAVYFAPDTDAGFLDAITTAIHDPTLKPSVVSISWGGPEDSWTSAAIAAMNRAFLDAAALGVTVLAAAGDSGSTDGEDDGLYHVDFPAASPYVLACGGTRLVASGGRIAQETVWNDGPDGGATGGGVSRIFPLPAWQEHANVPPSANPGASSGRGVPDLAGNADPATGYEVVIDGEATVIGGTSAVAPLFAALVARINQKLGKAVGYLNPTLYQLPADVFHDITEGNNDIANRAQIYQAGPGWDPCTGLGSPIGVRLLQALLPSASQPQPGSTENLYFQSGALEHHHHHH
B2: Kumamolisin-As N291D, Q361D, D358G (protein)
chain: AAPTAYTPLDVAQAYQFPEGLDGQGQCIAIIELGGGYDEASLAQYFASLGVPAPQVVSVSVDGASNQPTGDPSGPDGEVELDIEVAGALAPGAKFAVYFAPDTDAGFLDAITTAIHDPTLKPSVVSISWGGPEDSWTSAAIAAMNRAFLDAAALGVTVLAAAGDSGSTGGEDDGLYHVDFPAASPYVLACGGTRLVASGGRIAQETVWNDGPDGGATGGGVSRIFPLPAWQEHANVPPSANPGASSGRGVPDLAGNADPATGYEVVIDGEATVIGGTSAVAPLFAALVARINQKLGKAVGYLNPTLYQLPADVFHDITEGNNDIANRAQIYQAGPGWDPCTGLGSPIGVRLLQALLPSASQPQPGSTENLYFQSGALEHHHHHH
B3: Kumamolisin-As T292S, N291D, G319S, D358G, D368H (protein)
chain: AAPTAYTPLDVAQAYQFPEGLDGQGQCIAIIELGGGYDEASLAQYFASLGVPAPQVVSVSVDGASNQPTGDPSGPDGEVELDIEVAGALAPGAKFAVYFAPDSDAGFLDAITTAIHDPTLKPSVVSISWSGPEDSWTSAAIAAMNRAFLDAAALGVTVLAAAGDSGSTGGEQDGLYHVHFPAASPYVLACGGTRLVASGGRIAQETVWNDGPDGGATGGGVSRIFPLPAWQEHANVPPSANPGASSGRGVPDLAGNADPATGYEVVIDGEATVIGGTSAVAPLFAALVARINQKLGKAVGYLNPTLYQLPADVFHDITEGNNDIANRAQIYQAGPGWDPCTGLGSPIGVRLLQALLPSASQPQPGSTENLYFQSGALEHHHHHH
B4: Kumamolisin-As N291D, D293A, Q361D, D358N (protein)
chain: AAPTAYTPLDVAQAYQFPEGLDGQGQCIAIIELGGGYDEASLAQYFASLGVPAPQVVSVSVDGASNQPTGDPSGPDGEVELDIEVAGALAPGAKFAVYFAPDTAAGFLDAITTAIHDPTLKPSVVSISWGGPEDSWTSAAIAAMNRAFLDAAALGVTVLAAAGDSGSTNGEDDGLYHVDFPAASPYVLACGGTRLVASGGRIAQETVWNDGPDGGATGGGVSRIFPLPAWQEHANVPPSANPGASSGRGVPDLAGNADPATGYEVVIDGEATVIGGTSAVAPLFAALVARINQKLGKAVGYLNPTLYQLPADVFHDITEGNNDIANRAQIYQAGPGWDPCTGLGSPIGVRLLQALLPSASQPQPGSTENLYFQSGALEHHHHHH
B5: Kumamolisin-As S354N, D358G, D368H (protein)
chain: AAPTAYTPLDVAQAYQFPEGLDGQGQCIAIIELGGGYDEASLAQYFASLGVPAPQVVSVSVDGASNQPTGDPSGPDGEVELDIEVAGALAPGAKFAVYFAPNTDAGFLDAITTAIHDPTLKPSVVSISWGGPEDSWTSAAIAAMNRAFLDAAALGVTVLAAAGDNGSTGGEQDGLYHVHFPAASPYVLACGGTRLVASGGRIAQETVWNDGPDGGATGGGVSRIFPLPAWQEHANVPPSANPGASSGRGVPDLAGNADPATGYEVVIDGEATVIGGTSAVAPLFAALVARINQKLGKAVGYLNPTLYQLPADVFHDITEGNNDIANRAQIYQAGPGWDPCTGLGSPIGVRLLQALLPSASQPQPGSTENLYFQSGALEHHHHHH
B6: Kumamolisin-As N291D, D293A, G319S, D358G, Q361D, D368H (protein)
chain: AAPTAYTPLDVAQAYQFPEGLDGQGQCIAIIELGGGYDEASLAQYFASLGVPAPQVVSVSVDGASNQPTGDPSGPDGEVELDIEVAGALAPGAKFAVYFAPDTAAGFLDAITTAIHDPTLKPSVVSISWSGPEDSWTSAAIAAMNRAFLDAAALGVTVLAAAGDSGSTGGEDDGLYHVHFPAASPYVLACGGTRLVASGGRIAQETVWNDGPDGGATGGGVSRIFPLPAWQEHANVPPSANPGASSGRGVPDLAGNADPATGYEVVIDGEATVIGGTSAVAPLFAALVARINQKLGKAVGYLNPTLYQLPADVFHDITEGNNDIANRAQIYQAGPGWDPCTGLGSPIGVRLLQALLPSASQPQPGSTENLYFQSGALEHHHHHH
B7: Kumamolisin-As N291D, D293A, D358G, Q361D (protein)
chain: AAPTAYTPLDVAQAYQFPEGLDGQGQCIAIIELGGGYDEASLAQYFASLGVPAPQVVSVSVDGASNQPTGDPSGPDGEVELDIEVAGALAPGAKFAVYFAPDTAAGFLDAITTAIHDPTLKPSVVSISWGGPEDSWTSAAIAAMNRAFLDAAALGVTVLAAAGDSGSTGGEDDGLYHVDFPAASPYVLACGGTRLVASGGRIAQETVWNDGPDGGATGGGVSRIFPLPAWQEHANVPPSANPGASSGRGVPDLAGNADPATGYEVVIDGEATVIGGTSAVAPLFAALVARINQKLGKAVGYLNPTLYQLPADVFHDITEGNNDIANRAQIYQAGPGWDPCTGLGSPIGVRLLQALLPSASQPQPGSTENLYFQSGALEHHHHHH
B8: Kumamolisin-As N291D, D293A, D358N (protein)
chain: AAPTAYTPLDVAQAYQFPEGLDGQGQCIAIIELGGGYDEASLAQYFASLGVPAPQVVSVSVDGASNQPTGDPSGPDGEVELDIEVAGALAPGAKFAVYFAPDTAAGFLDAITTAIHDPTLKPSVVSISWGGPEDSWTSAAIAAMNRAFLDAAALGVTVLAAAGDSGSTNGEQDGLYHVDFPAASPYVLACGGTRLVASGGRIAQETVWNDGPDGGATGGGVSRIFPLPAWQEHANVPPSANPGASSGRGVPDLAGNADPATGYEVVIDGEATVIGGTSAVAPLFAALVARINQKLGKAVGYLNPTLYQLPADVFHDITEGNNDIANRAQIYQAGPGWDPCTGLGSPIGVRLLQALLPSASQPQPGSTENLYFQSGALEHHHHHH
B9: Kumamolisin-As S262G, T292S, N291D, G319S, D358G, D368H (protein)
chain: AAPTAYTPLDVAQAYQFPEGLDGQGQCIAIIELGGGYDEASLAQYFASLGVPAPQVVSVSVDGASNQPTGDPGGPDGEVELDIEVAGALAPGAKFAVYFAPDSDAGFLDAITTAIHDPTLKPSVVSISWSGPEDSWTSAAIAAMNRAFLDAAALGVTVLAAAGDSGSTGGEQDGLYHVHFPAASPYVLACGGTRLVASGGRIAQETVWNDGPDGGATGGGVSRIFPLPAWQEHANVPPSANPGASSGRGVPDLAGNADPATGYEVVIDGEATVIGGTSAVAPLFAALVARINQKLGKAVGYLNPTLYQLPADVFHDITEGNNDIANRAQIYQAGPGWDPCTGLGSPIGVRLLQALLPSASQPQPGSTENLYFQSGALEHHHHHH
B10: Kumamolisin-As N291D, D293A (protein)
chain: AAPTAYTPLDVAQAYQFPEGLDGQGQCIAIIELGGGYDEASLAQYFASLGVPAPQVVSVSVDGASNQPTGDPSGPDGEVELDIEVAGALAPGAKFAVYFAPDTAAGFLDAITTAIHDPTLKPSVVSISWGGPEDSWTSAAIAAMNRAFLDAAALGVTVLAAAGDSGSTDGEQDGLYHVDFPAASPYVLACGGTRLVASGGRIAQETVWNDGPDGGATGGGVSRIFPLPAWQEHANVPPSANPGASSGRGVPDLAGNADPATGYEVVIDGEATVIGGTSAVAPLFAALVARINQKLGKAVGYLNPTLYQLPADVFHDITEGNNDIANRAQIYQAGPGWDPCTGLGSPIGVRLLQALLPSASQPQPGSTENLYFQSGALEHHHHHH
B11: Kumamolisin-As N291D, D358N (protein)
chain: AAPTAYTPLDVAQAYQFPEGLDGQGQCIAIIELGGGYDEASLAQYFASLGVPAPQVVSVSVDGASNQPTGDPSGPDGEVELDIEVAGALAPGAKFAVYFAPDTDAGFLDAITTAIHDPTLKPSVVSISWGGPEDSWTSAAIAAMNRAFLDAAALGVTVLAAAGDSGSTNGEQDGLYHVDFPAASPYVLACGGTRLVASGGRIAQETVWNDGPDGGATGGGVSRIFPLPAWQEHANVPPSANPGASSGRGVPDLAGNADPATGYEVVIDGEATVIGGTSAVAPLFAALVARINQKLGKAVGYLNPTLYQLPADVFHDITEGNNDIANRAQIYQAGPGWDPCTGLGSPIGVRLLQALLPSASQPQPGSTENLYFQSGALEHHHHHH
B12: Kumamolisin-As N291D (protein)
chain: AAPTAYTPLDVAQAYQFPEGLDGQGQCIAIIELGGGYDEASLAQYFASLGVPAPQVVSVSVDGASNQPTGDPSGPDGEVELDIEVAGALAPGAKFAVYFAPDTDAGFLDAITTAIHDPTLKPSVVSISWGGPEDSWTSAAIAAMNRAFLDAAALGVTVLAAAGDSGSTDGEQDGLYHVDFPAASPYVLACGGTRLVASGGRIAQETVWNDGPDGGATGGGVSRIFPLPAWQEHANVPPSANPGASSGRGVPDLAGNADPATGYEVVIDGEATVIGGTSAVAPLFAALVARINQKLGKAVGYLNPTLYQLPADVFHDITEGNNDIANRAQIYQAGPGWDPCTGLGSPIGVRLLQALLPSASQPQPGSTENLYFQSGALEHHHHHH
B13: Kumamolisin-As N291D, G319S, D358G, Q361D, D368H (protein)
chain: AAPTAYTPLDVAQAYQFPEGLDGQGQCIAIIELGGGYDEASLAQYFASLGVPAPQVVSVSVDGASNQPTGDPSGPDGEVELDIEVAGALAPGAKFAVYFAPDTDAGFLDAITTAIHDPTLKPSVVSISWSGPEDSWTSAAIAAMNRAFLDAAALGVTVLAAAGDSGSTGGEDDGLYHVHFPAASPYVLACGGTRLVASGGRIAQETVWNDGPDGGATGGGVSRIFPLPAWQEHANVPPSANPGASSGRGVPDLAGNADPATGYEVVIDGEATVIGGTSAVAPLFAALVARINQKLGKAVGYLNPTLYQLPADVFHDITEGNNDIANRAQIYQAGPGWDPCTGLGSPIGVRLLQALLPSASQPQPGSTENLYFQSGALEHHHHHH
B14: Kumamolisin-As N291D, G319S, S354N, D358G, Q361D, D368H (protein)
chain: AAPTAYTPLDVAQAYQFPEGLDGQGQCIAIIELGGGYDEASLAQYFASLGVPAPQVVSVSVDGASNQPTGDPSGPDGEVELDIEVAGALAPGAKFAVYFAPDTDAGFLDAITTAIHDPTLKPSVVSISWSGPEDSWTSAAIAAMNRAFLDAAALGVTVLAAAGDNGSTGGEDDGLYHVHFPAASPYVLACGGTRLVASGGRIAQETVWNDGPDGGATGGGVSRIFPLPAWQEHANVPPSANPGASSGRGVPDLAGNADPATGYEVVIDGEATVIGGTSAVAPLFAALVARINQKLGKAVGYLNPTLYQLPADVFHDITEGNNDIANRAQIYQAGPGWDPCTGLGSPIGVRLLQALLPSASQPQPGSTENLYFQSGALEHHHHHH

Molecular target: T1, fluorescently quenched α-gliadin …

| Protein | Fold Change in Activity of PQ Hydrolysis Relative to Wild Type Kumamolysin-As |
| --- | --- |
| B1 | 7.5 fold |
| B2 | 20 fold |
| B3 | 49 fold |
| B4 | 14.8 fold |
| B5 | 9 fold |
| B6 | 40.9 fold |
| B7 | 15 fold |
| B8 | 24 fold |
| B9 | 29 fold |
| B10 | 15 fold |
| B11 | 18.9 fold |
| B12 | 10 fold |
| B13 | 23.1 fold |
| B14 | 50 fold |
